The source of these data is article doi:10.1101/2022.10.11.511767, “A conserved and tunable mechanism for the temperature-controlled condensation of the translation factor Ded1p” (bioRxiv, 2022).

Settings in all cases: both partners purified
For experiment [1], the target named is T1, helicase core region of Sc Ded1p (RecA1-RecA2, residues 82-535) (S. cerevisiae, UniProt P06634 82-535).
T1 construct: Ded1p (DEAD-box RNA helicase), S. cerevisiae, helicase core region (RecA1-RecA2), residues 82-535; Used unlabelled (NMR invisible); also called Sc helicase domain (RecA1-RecA2); helicase core domain; source: E. coli, purified (Ni-NTA, TEV cleavage, second Ni-NTA, size exclusion); not shown: His6, N-terminal, cleaved
T1 sequence (P06634 82-535): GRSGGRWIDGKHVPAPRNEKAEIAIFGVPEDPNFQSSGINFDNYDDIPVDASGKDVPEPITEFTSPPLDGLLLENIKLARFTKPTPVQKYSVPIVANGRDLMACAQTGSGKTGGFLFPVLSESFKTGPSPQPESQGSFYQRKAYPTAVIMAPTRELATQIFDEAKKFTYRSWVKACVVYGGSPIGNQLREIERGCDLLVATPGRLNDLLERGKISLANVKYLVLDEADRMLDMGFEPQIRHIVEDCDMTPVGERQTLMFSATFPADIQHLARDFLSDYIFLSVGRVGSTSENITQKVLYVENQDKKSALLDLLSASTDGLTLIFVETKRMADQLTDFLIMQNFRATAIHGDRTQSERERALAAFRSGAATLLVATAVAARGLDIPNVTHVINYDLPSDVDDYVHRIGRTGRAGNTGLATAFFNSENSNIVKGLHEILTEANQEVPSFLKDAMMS
Put plainly: NMR titration; 1H-15N spectra of the isotope-labelled C-terminal IDR; unlabelled helicase core, RecA1 or RecA2 added; visible condensation in the NMR tube; 20 mM HEPES pH 7.3, 125 mM NaCl, 1 mM DTT, 5% D2O.

Experiment [2] has as its target T2, RecA1 domain of Sc Ded1p (residues 82-369) (S. cerevisiae, UniProt P06634 82-369).
T2 construct: Ded1p (DEAD-box RNA helicase), S. cerevisiae, first RecA domain, residues 82-369; Used unlabelled (NMR invisible); also called first RecA domain; RecA1 subdomain; source: E. coli, purified (Ni-NTA, TEV cleavage, second Ni-NTA, size exclusion); not shown: His6, N-terminal, cleaved
The description is as above.

In experiment [3] the target is T1, helicase core region of Sc Ded1p …. Briefly: NMR titration; 1H-15N spectra of the isotope-labelled N-terminal IDR; unlabelled helicase core, RecA1 or RecA2 added; 20 mM HEPES pH 7.3, 125 mM NaCl, 1 mM DTT, 5% D2O.
For experiment [4], the target named is T3, RecA2 domain of Sc Ded1p (residues 369-535) (S. cerevisiae, UniProt P06634 369-535).
T3 construct: Ded1p (DEAD-box RNA helicase), S. cerevisiae, second RecA domain, residues 369-535; 15N and/or 13C isotope labelled when it was the NMR-visible partner, unlabelled when NMR invisible; also called second RecA domain; Rec2 subdomain; source: E. coli, purified (Ni-NTA, TEV cleavage, second Ni-NTA, size exclusion); not shown: His6, N-terminal, cleaved
T3 sequence (P06634 369-535): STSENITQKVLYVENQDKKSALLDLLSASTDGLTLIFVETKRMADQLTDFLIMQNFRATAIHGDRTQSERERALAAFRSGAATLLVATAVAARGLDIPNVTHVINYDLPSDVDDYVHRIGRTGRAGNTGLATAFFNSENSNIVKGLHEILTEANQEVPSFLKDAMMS
The experiment is described as above.

T2 sequence (P06634 82-369): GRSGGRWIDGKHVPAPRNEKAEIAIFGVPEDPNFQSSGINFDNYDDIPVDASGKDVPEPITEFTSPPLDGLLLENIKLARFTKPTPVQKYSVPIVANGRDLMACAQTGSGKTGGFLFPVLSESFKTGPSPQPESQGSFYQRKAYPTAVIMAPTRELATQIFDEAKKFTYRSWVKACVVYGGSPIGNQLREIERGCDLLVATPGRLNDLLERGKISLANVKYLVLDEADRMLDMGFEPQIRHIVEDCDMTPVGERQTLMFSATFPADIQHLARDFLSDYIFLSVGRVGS

B1: C-terminal IDR of Sc Ded1p (residues 533-604) (domain or fragment, S. cerevisiae, UniProt P06634 533-604, looked up)
chain: MMSAPGSRSNSRRGGFGRNNNRDYRKAGGASAGGWGSSRSRDNSFRGGSGWGSDSKSSGWGNSGGSNNSSWW
notes: Ded1p (DEAD-box RNA helicase), S. cerevisiae, C-terminal intrinsically disordered region, residues 533-604; 15N isotope labelled (NMR visible) in the titrations; also called C-IDR; source: E. coli, purified (Ni-NTA, TEV cleavage, second Ni-NTA, size exclusion); not shown: His6, N-terminal, cleaved
Turning to B1, the binding result in experiment [1] and in experiment [2] was “binds” each time.

B2: N-terminal IDR of Sc Ded1p (residues 1-81) (domain or fragment, S. cerevisiae, UniProt P06634 1-81, looked up)
chain: MAELSEQVQNLSINDNNENGYVPPHLRGKPRSARNNSSNYNNNNGGYNGGRGGGSFFSNNRRGGYGNGGFFGGNNGGSRSN
notes: Ded1p (DEAD-box RNA helicase), S. cerevisiae, N-terminal intrinsically disordered region, residues 1-81; 15N and/or 13C isotope labelled when it was the NMR-visible partner, grown in LB (unlabelled) when NMR invisible; also called N-terminal region; N-IDR; source: E. coli, purified (Ni-NTA, TEV cleavage, second Ni-NTA, size exclusion); not shown: His6, N-terminal, cleaved
Turning to B2, the binding result in experiment [3] and in experiment [4] was “binds” throughout.
